Each block holds one binder with its values, some of them ahead of it.
Columns and labels:
[1] = molecular target: T1, hDOP–Renilla luciferase (human), P41143; test: FRET or BRET; details: remark: other sources report otherwise
T1 chain: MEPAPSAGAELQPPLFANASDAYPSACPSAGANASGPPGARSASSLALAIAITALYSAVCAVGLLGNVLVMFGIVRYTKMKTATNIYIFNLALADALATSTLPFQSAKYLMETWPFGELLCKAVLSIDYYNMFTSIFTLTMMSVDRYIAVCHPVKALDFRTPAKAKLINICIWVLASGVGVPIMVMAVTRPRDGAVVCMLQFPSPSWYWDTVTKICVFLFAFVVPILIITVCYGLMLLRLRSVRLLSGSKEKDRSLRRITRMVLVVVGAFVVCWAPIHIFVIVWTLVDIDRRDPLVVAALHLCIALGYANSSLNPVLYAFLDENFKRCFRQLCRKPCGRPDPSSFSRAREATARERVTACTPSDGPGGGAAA

[2] = molecular target: T2, hCXCR2–Renilla luciferase (human), P25025; test: FRET or BRET; details: remark: other sources report otherwise
T2 chain: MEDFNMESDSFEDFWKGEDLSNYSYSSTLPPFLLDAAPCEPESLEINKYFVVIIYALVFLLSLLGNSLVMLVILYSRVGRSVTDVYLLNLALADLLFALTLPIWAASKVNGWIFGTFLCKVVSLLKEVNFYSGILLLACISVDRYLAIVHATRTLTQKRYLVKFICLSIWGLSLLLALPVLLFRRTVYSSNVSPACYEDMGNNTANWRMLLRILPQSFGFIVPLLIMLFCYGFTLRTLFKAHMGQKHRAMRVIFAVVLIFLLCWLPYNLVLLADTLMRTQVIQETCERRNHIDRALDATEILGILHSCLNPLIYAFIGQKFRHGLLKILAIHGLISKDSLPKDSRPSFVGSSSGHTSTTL

BRET50 ([acceptor] to [donor] ratio) [1]: 2.2
B1: hDOP–GFP^2, P41143 1-372 (receptor)
chain: T1 chain

BRET50 ([acceptor] to [donor] ratio) [2]: 1.6
B2: hCXCR2–GFP^2, P25025 1-360 (receptor)
chain: T2 chain

From PMC2474558
